Measurements as given in publication PMC6459735 (Journal of biomolecular structure & dynamics, 2019).

Molecular target: the molecule itself
Test: crystal structure

B1: human Caprin-2 fragment (residues 199-329), dimerization domain (domain or fragment)
chain: GPSSPSQRREHMLKLEAEKKKLRTILQVQYVLQNLTQEHVQKDFKGGLNGAVYLPSKELDYLIKFSKLTCPERNESLSVEDQMEQSSLYFWDLLEGSEKAVVGTTYKHLKDLLSKLLNSGYFESIPVPKNAKEKEVP
modifications: Se-Met labelled (L-seleno-methionine in place of methionine) in the crystal used for the structure
Which “stoichiometry N” value does the source give for B1 here?
The value was 2.
